From article PMC2569942

Target: prophagic Cu,Zn superoxide dismutase SodC-F1 of E. coli O157:H7 (soluble recombinant mature enzyme from pO157-ΔCys) (E. coli O157:H7 EDL933)
Test: SEC

Substance: prophagic Cu,Zn superoxide dismutase SodC-F1 of E. coli O157:H7 (soluble recombinant mature enzyme from pO157-ΔCys)
- stoichiometry N: 2
